The source of these data is publication PMC12333375.

In experiment [1] the target is AAV8 capsid (adeno-associated virus serotype 8 capsid) (adeno-associated virus serotype 8 (AAV8)) (UniProt Q8JQF8). The experiment in a line: native MS; orbitrap-based charge detection-mass spectrometry (CD-MS) of nSEC fraction F2 (capsid dimers), infused by CE with sheath liquid interface at about 80 nL/min, 200 mM ammonium acetate, nano ESI, triplicates.
For experiment [2] the target is unchanged. The experiment in a line: SEC-MALS; offline native SEC (AdvanceBio SEC 300 x 7.8 mm, 2.7 um, 500 A) with 20-angle MALS and DAD at 260 and 280 nm; 1:1 (v/v) mixture of empty and full AAV8 capsids; 200 mM ammonium acetate, 1.0 mL/min, 6 replicates; capsid dimer against capsid monomer by peak area. A general note: SEC sorts molecules by how far they enter the pores of the column.

One may read the stoichiometry N as the number of molecules, sites or subunits per partner or assembly.

In experiment [1], “AAV8 capsid (adeno-associated virus serotype 8 capsid) (from UniProt Q8JQF8 1-738) (complex)” had a % empty capsid dimers (CD-MS) of 1%, a % filled capsid dimers (CD-MS) of 3% and a stoichiometry N of 2. Moreover, in experiment [2], the % AAV8 capsid dimer (peak area, absorbance at 260 nm) came to 0.9%; the % AAV8 capsid dimer (peak area, absorbance at 280 nm) was 1%; the stoichiometry N was 2.
